According to patent US5821048, “Methods, kits, and compositions for diagnosing papillomavirus infection” (President and Fellows of Harvard College, dated 1998):

Legend:
[1] = target: T1, BPV-1 E2 protein bearing a deletion of the amino terminal 52 amino acids (bovine papillomavirus-1, 35S-methionine-labelled); test: GST pull-down of in vitro translated 35S-E2 forms
T1 chain: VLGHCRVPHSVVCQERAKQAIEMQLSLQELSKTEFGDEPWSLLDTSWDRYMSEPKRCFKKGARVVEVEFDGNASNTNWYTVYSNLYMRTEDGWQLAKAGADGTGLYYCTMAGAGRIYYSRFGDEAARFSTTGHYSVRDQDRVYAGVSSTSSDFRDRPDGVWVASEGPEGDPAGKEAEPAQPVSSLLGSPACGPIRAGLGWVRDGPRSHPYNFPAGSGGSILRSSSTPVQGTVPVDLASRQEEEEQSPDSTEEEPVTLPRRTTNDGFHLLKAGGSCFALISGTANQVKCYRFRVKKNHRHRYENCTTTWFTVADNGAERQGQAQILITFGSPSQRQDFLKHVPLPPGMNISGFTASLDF

[2] = target: T2, BPV-1 E2 (aa161-410) (bovine papillomavirus-1, 35S-methionine-labelled); test: GST pull-down of in vitro translated 35S-E2 forms
T2 chain: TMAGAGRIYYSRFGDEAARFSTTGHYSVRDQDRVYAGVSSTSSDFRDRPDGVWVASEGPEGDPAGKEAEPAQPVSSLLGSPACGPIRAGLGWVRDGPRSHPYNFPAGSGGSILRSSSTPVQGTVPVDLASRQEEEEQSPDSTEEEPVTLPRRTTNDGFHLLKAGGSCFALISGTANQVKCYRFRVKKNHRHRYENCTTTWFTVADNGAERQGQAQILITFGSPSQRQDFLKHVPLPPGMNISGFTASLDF

[3] = target: T3, full length BPV-1 E2 protein, in vitro translated (bovine papillomavirus-1, 35S-methionine-labelled); test: GST pull-down of in vitro translated 35S-E2
T3 chain: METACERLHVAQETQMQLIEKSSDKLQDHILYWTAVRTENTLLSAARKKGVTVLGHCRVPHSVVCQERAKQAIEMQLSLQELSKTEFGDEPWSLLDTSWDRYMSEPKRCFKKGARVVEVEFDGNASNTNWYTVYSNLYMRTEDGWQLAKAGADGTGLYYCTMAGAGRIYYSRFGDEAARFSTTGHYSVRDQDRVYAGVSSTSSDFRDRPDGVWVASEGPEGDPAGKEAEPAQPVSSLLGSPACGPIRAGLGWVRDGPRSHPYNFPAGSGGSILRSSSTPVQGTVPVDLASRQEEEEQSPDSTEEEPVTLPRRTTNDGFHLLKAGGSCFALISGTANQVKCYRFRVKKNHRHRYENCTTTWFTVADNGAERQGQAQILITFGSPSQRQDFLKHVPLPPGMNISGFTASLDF

B1: BPV-1 E1 (amino acids 1-222)-GST fusion protein (other)
chain: MANDKGSNWDSGLGCSYLLTEAECESDKENEEPGAGVELSVESDRYDSQDEDFVDNASVFQGNHLEVFQALEKKAGEEQILNLKRKVLGSSQNSSGSEASETPVKRRKSGAKRRLFAENEANRVLTPLQVQGEGEGRQELNEEQAISHLHLQLVKSKNATVFKLGLFKSLFLCSFHDITRLFKNDKTTNQQWVLAVFGLAEVFFEASFELLKKQCSFLQMQK
- binding result [1]: no binding
- binding result [2]: no binding

B2: GST fusion protein containing amino acids 200-424 of SEQ ID NO:1 (BPV-1 E1) (other)
chain: AEVFFEASFELLKKQCSFLQMQKRSHEGGTCAVYLICFNTAKSRETVRNLMANTLNVREECLMLQPAKIRGLSAALFWFKSSLSPATLKHGALPEWIRAQTTLNESLQTEKFDFGTMVQWAYDHKYAEESKIAYEYALAAGSDSNARAFLATNSQAKHVKDCATMVRHYLRAETQALSMPAYIKARCKLATGEGSWKSILTFFNYQNIELITFINALKLWLKGIP
- binding result [3]: no binding

B3: GST fusion protein containing BPV-1 E1 amino acids 1-128 (other)
chain: MANDKGSNWDSGLGCSYLLTEAECESDKENEEPGAGVELSVESDRYDSQDEDFVDNASVFQGNHLEVFQALEKKAGEEQILNLKRKVLGSSQNSSGSEASETPVKRRKSGAKRRLFAENEANRVLTPL
- binding result [3]: no binding
